Assay results: patent US20060166920A1, “Oligonucleotide based therapeutics” (Regents of the University of Michigan, priority 2004, published 2006)

Assays:
[1] = tested on: human Bcl-xL; experiment: Western blot of PC-3 cells transfected with Bcl-xL siRNA cassettes; type: cell-based; settings: inferred from transfection efficiency of 40% to 50%
Experimental: (§1) Human prostate cancer PC-3 cells and human breast cancer MCF-7 cells were transfected with the designed Bcl-xL dsRNA (siRNA) cassettes, using a transferrin-liposome system (LipofectaminePlus, Invitrogen). Briefly, 5×10^5 cells were plated per well in 6-well plates. After overnight culture, the cells were 60% to 70% confluent. The transfection was performed according to the manufacturer's instruction, with 0.4 μg siRNA cassette DNA per well. The cells were cultured for 48 hr, then harvested and cell lysates were made for Western blot analysis. 15 μg of protein were added to each lane for SDS-PAGE. […] Similar results were also observed in MCF-7 cells (See, e.g., FIG. 2). […] Therefore, with efficient delivery to the cells, the Bcl-xL siRNA effectively induces cell death.

[2] = tested on: Bcl-xS; experiment: as above; type: cell-based, human; settings: 0.4 μg siRNA cassette DNA per well, 48 hr
Experimental: as §1

[3] = tested on: human breast cancer MCF-7 cells; experiment: Cell death of MCF-7 cells after transfection; type: cell-based; settings: MCF-7 cells 48 hr after transfection of siRNA cassette
Experimental: as §1
MCF-7 and PC-3 cells were transfected with psiBcl-xL (transfection conditions were performed as described above). In some experiments, FuGene 6 (Roche) was used due to low toxicity and high efficiency for plasmid transfection. Briefly, 60% confluent cells were transfected with 1-3 μg psiBcl-xL or psiLuc DNA per well in a 6-well plate (DNA:FuGene 6 ratio=1 μg:3 μl). […] The transfection efficiency of FuGene 6 (as detected by green fluorescence protein (GFP) expression; psiBcl-xL posseses the green fluorescence protein (GFP) gene, See, e.g., FIG. 4) for MCF-7 cells was about 40% -50%. […]

[4] = tested on: human Bcl-xL; experiment: Western blot of MCF-7 cells transfected with Bcl-xL siRNA cassettes; type: cell-based
Experimental: as §1

[5] = tested on: Bcl-xS; experiment: as above; type: cell-based, human; settings: 0.4 μg siRNA cassette DNA per well, 48 hr
Experimental: as §1

Molecule | Bcl-xL gene knockdown in the cells transfected [1] [%] | effect on Bcl-xS expression [2] | cell death [3] | down-regulation of Bcl-xL ([4]; 0.4 μg siRNA cassette DNA per well, LipofectaminePlus, 48 hr) [%] | Bcl-xL down-regulation in the transfected cells ([4]; inferred from transfection efficiency of 40%-50%) [%] | effect on Bcl-xS expression [5]
siRNA #3: Bcl-xL small hairpin siRNA cassette, SEQ ID NO: 5, 76 bp (nucleic acid, listed as Homo sapiens, expressed or natural sequence; the letters are possibly those of the target site) DNA: GGATCCCGCGATCCGACTCACCAATACCTTTGATATCCGAGGTATTGGTGAGTCGGATCGTTTTTTCCAAAAGCTT | ~100 | without significantly affecting Bcl-xS expression | somewhat less cell death |  |  | 
siRNA #2: Bcl-xL small hairpin siRNA cassette, SEQ ID NO: 4, 76 bp (nucleic acid, listed as Homo sapiens, expressed or natural sequence; the letters are possibly those of the target site) DNA: GGATCCCGCTTGTCTACGCTTTCCACGCATTGATATCCGTGCGTGGAAAGCGTAGACAAGTTTTTTCCAAAAGCTT | ~100 | without significantly affecting Bcl-xS expression | up to 50% | > 50 | ~100 | without significantly affecting Bcl-xS expression
